The target of the assay is dGvpC (Ana GvpC with SG-… at the C-terminus, encoded in the acoustic sensor gene for ClpXP) (Anabaena flos-aquae) (UniProt P09413). Nature of the assay: cell-based or functional assay.
dGvpC (Ana GvpC with SG-… at the C-terminus, encoded in the acoustic sensor gene for ClpXP) (Anabaena flos-aquae), sequence (P09413 1-193, tags or fused parts left off): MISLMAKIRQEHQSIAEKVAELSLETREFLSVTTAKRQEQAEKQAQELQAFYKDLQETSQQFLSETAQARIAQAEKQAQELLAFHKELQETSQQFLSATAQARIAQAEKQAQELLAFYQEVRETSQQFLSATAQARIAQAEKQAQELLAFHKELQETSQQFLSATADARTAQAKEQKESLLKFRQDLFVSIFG

“ClpXP of E. coli Nissle 1917 (native, or ClpX and ClpP cloned from the Nissle genome under the pBAD promoter) (from UniProt P0A6H1 2-424; P0A6G7 15-207) (enzyme)” gave a hydrostatic collapse pressure midpoint of intact WT Nissle cells, ASGClpXP against ARGWT of 160 kPa; a hydrostatic collapse pressure midpoint of ΔClpXP Nissle cells with against without ClpXP induction of 160 kPa; a nonlinear ultrasound contrast of live WT Nissle cells, ASGClpXP against ARGWT of 13 dB; a nonlinear ultrasound contrast of ΔClpXP Nissle cells with against without ClpXP induction of 6.7 dB.

These data come from patent US20210060185A1.
